Patent publication EP4574846A1

Experiments:
human VEGFA165 (human) [1] = molecular target: human VEGFA165 (human) (UniProt P15692); experiment: cell-based or functional assay
human VEGFA165 (human) [2] = molecular target: human VEGFA165 (human) (UniProt P15692); experiment: SPR Biacore 8K, VEGFA165 (GenScript) on CM5 at low immobilization, protein as analyte, 1:1 model

human VEGFA165 (human), sequence (P15692 other isoform, or with tags, fused parts or gaps limits assumed): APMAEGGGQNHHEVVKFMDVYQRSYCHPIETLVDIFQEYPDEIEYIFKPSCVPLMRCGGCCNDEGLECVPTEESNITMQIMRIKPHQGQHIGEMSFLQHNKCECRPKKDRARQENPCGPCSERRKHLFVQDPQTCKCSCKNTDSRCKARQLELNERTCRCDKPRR

| HUVEC proliferation inhibition IC50 (human VEGFA165 (human) [1]) [nM] | HUVEC proliferation inhibition Maximum inhibition rate (%) (human VEGFA165 (human) [1]) | Kd (human VEGFA165 (human) [2]) [nM] | koff (human VEGFA165 (human) [2]) [s⁻¹] | kon (human VEGFA165 (human) [2]) [M⁻¹ s⁻¹] | Substance |
| --- | --- | --- | --- | --- | --- |
| 0.81 | 60 | 0.0584 | 9.57e-05 | 1.64e+06 | Aflibercept (Fc fusion) |
|  | 0 |  |  |  | human IgG1 antibody (hIgG1 control) that binds to HIV |
